The record followed here is PMC12412668.

Experiment [1] addresses T1, CD96 on primary human CD4^+ T cells and PBMCs (human (endogenous in primary CD4^+ T cells and PBMCs)) (UniProt P40200).
T1 sequence: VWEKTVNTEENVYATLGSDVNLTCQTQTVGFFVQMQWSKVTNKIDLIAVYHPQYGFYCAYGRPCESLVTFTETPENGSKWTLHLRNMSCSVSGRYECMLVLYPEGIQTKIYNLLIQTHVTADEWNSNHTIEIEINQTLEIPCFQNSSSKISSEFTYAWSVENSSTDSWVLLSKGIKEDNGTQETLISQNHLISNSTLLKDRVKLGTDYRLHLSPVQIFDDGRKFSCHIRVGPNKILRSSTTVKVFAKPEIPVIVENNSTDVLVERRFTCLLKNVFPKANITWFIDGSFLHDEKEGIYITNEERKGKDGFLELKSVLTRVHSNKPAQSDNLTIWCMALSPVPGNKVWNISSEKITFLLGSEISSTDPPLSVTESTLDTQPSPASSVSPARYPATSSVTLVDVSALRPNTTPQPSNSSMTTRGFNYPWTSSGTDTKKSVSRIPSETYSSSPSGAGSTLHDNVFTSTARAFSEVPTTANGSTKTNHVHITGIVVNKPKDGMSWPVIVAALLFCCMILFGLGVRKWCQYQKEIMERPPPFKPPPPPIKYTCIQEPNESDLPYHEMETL

The target of experiment [2] is T1, CD96 on primary human CD4^+ T cells and PBMCs (human (endogenous in primary CD4^+ T cells and PBMCs)). The source holds these as a separate data set.

B1: Recombinant human CD155-Fc chimera (carrier-free) (Fc fusion)
chain: WPPPGTGDVVVQAPTQVPGFLGDSVTLPCYLQVPNMEVTHVSQLTWARHGESGSMAVFHQTQGPSYSESKRLEFVAARLGAELRNASLRMFGLRVEDEGNYTCLFVTFPQGSRSVDIWLRVLAKPQNTAEVQKVQLTGEPVPMARCVSTGGRPPAQITWHSDLGGMPNTSQVPGFLSGTVTVTSLWILVPSSQVDGKNVTCKVEHESFEKPQLLTVNLTVYYPPEVSISGYDNNWYLGQNEATLTCDARSNPEPTGYNWSTTMGPLPPFAVAQGAQLLIRPVDKPINTTLICNVTNALGARQAELTVQVKEGPPSEHSGISRN
In experiment [1], B1 displayed an adherence of primary CD4^+ T cells (mock-infected or infected with WT HIV-1) to wells coated with CD155-Fc, percent adherent cells by flow cytometry of 20%.

B2: Human CD155 (PVR) Fc chimera recombinant protein (Fc fusion)
chain: WPPPGTGDVVVQAPTQVPGFLGDSVTLPCYLQVPNMEVTHVSQLTWARHGESGSMAVFHQTQGPSYSESKRLEFVAARLGAELRNASLRMFGLRVEDEGNYTCLFVTFPQGSRSVDIWLRVLAKPQNTAEVQKVQLTGEPVPMARCVSTGGRPPAQITWHSDLGGMPNTSQVPGFLSGTVTVTSLWILVPSSQVDGKNVTCKVEHESFEKPQLLTVNLTVYYPPEVSISGYDNNWYLGQNEATLTCDARSNPEPTGYNWSTTMGPLPPFAVAQGAQLLIRPVDKPINTTLICNVTNALGARQAELTVQVKEGPPSEHSGISRN
Consider B2, for which the IFN-γ release (ELISpot) of PBMCs stimulated with HCMV pp65 peptide and costimulated with soluble CD155 (5 μg/ml), fold change relative to pp65 alone in experiment [2] is less than 8 fold.
